Source: PMC2662861, “An unexpected phosphate binding site in Glyceraldehyde 3-Phosphate Dehydrogenase: Crystal structures of apo, holo and ternary complex of Cryptosporidium parvum enzyme” (BMC Structural Biology, 2009)

B1: Cryptosporidium parvum glyceraldehyde 3-phosphate dehydrogenase, wild type (enzyme)
chain: MTATLGINGFGRIGRLVLRACMERNDITVVAINDPFMDVEYMAYLLKYDSVHGNFNGTVEVSGKDLCINGKVVKVFQAKDPAEIPWGASGAQIVCESTGVFTTEEKASLHLKGGAKKVIISAPPKDNVPMYVMGVNNTEYDPSKFNVISNASCTTNCLAPLAKIINDKFGIVEGLMTTVHSLTANQLTVDGPSKGGKDWRAGRCAGNNIIPASTGAAKAVGKVIPALNGKLTGMAIRVPTPDVSVVDLTCKLAKPASIEEIYQAVKEASNGPMKGIMGYTSDDVVSTDFIGCKYSSIFDKNACIALNDSFVKLISWYDNESGYSNRLVDLAVYVASRGL
notes: glyceraldehyde 3-phosphate dehydrogenase of Cryptosporidium parvum; Homotetramer; Crystallised as apoenzyme and, after incubation with 2 mM NAD, as holoenzyme; also called CpGAPDH; C. parvum GAPDH; source: E. coli, purified (Ni-NTA, SP Sepharose cation exchange, Superdex 200); not shown: His6, N-terminal, kept
B2: Cryptosporidium parvum glyceraldehyde 3-phosphate dehydrogenase, C153S active site mutant (enzyme)
chain: MTATLGINGFGRIGRLVLRACMERNDITVVAINDPFMDVEYMAYLLKYDSVHGNFNGTVEVSGKDLCINGKVVKVFQAKDPAEIPWGASGAQIVCESTGVFTTEEKASLHLKGGAKKVIISAPPKDNVPMYVMGVNNTEYDPSKFNVISNASSTTNCLAPLAKIINDKFGIVEGLMTTVHSLTANQLTVDGPSKGGKDWRAGRCAGNNIIPASTGAAKAVGKVIPALNGKLTGMAIRVPTPDVSVVDLTCKLAKPASIEEIYQAVKEASNGPMKGIMGYTSDDVVSTDFIGCKYSSIFDKNACIALNDSFVKLISWYDNESGYSNRLVDLAVYVASRGL
notes: also called C153S mutant CpGAPDH; C153S CpGAPDH; source: E. coli, purified (Ni-NTA, SP Sepharose cation exchange, Superdex 200); not shown: His6, N-terminal, kept

Target: the molecule itself
Assay: crystal structure

Protein	stoichiometry N
B1	4
B2	4
